From patent US20090048324

T1: wild type human porphobilinogen synthase (PBGS), parent construct N59/C162A
T1 chain: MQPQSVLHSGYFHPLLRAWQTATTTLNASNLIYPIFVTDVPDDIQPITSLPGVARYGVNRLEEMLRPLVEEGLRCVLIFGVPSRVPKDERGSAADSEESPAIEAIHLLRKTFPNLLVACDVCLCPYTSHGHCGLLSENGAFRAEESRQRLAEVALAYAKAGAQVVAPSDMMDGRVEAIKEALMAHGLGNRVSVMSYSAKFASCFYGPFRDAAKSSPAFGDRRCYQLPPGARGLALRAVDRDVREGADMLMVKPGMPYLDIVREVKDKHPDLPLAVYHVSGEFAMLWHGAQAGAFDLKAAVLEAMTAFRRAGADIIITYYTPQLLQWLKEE


Experiments:
[1] = molecular target: T1, wild type human porphobilinogen …

Protein | K(0.5) of the protein concentration dependent specific activity (P30124) | K(0.5) of the protein concentration dependent specific activity in the presence of 5 µM morphlock-1 (P30124) | protein concentration giving half maximal specific activity (P30124) | protein concentration giving half maximal specific activity after 30 minutes with 30 µM rosmarinic acid (P30124) | specific activity as a function of pea PBGS concentration, DMSO control (filled circles) (P30124) | specific activity as a function of pea PBGS concentration, with morphlock-1 (open circles) (P30124) | specific activity as a function of pea PBGS subunit concentration (P30124) | specific activity over time after addition of ALA (filled triangles, Pool I) [1] | specific activity over time after addition of ALA (filled triangles, Pool II) [1]
pea (Pisum sativum) porphobilinogen synthase (protein) SLPIQRRPRRNRRSPALRSAFQETTLSPANFVYPLFIHEGEEDTPIGAMPGCYRLGWRHGLLEEVAKARDVGVNSVVLFPKIPDALKTPTGDEAYNEDGLVPRSIRLLKDKYPDLIIYTDVALDPYSSDGHDGIVREDGVIMNDETVHQLCKQAVAQARAGADVVSPSDMMDGRVGAMRVALDAEGFQHVSIMSYTAKYASSFYGPFREALDSNPRFGDKKTYQMNPANYREALTEMREDESEGADILLVKPGLPYLDIIRLLRDNSPLPIAAYQVSGEYSMIKAGGALKMIDEEKVMMESLLCLRRAGADIILTYFALQAARTLCGEKR | K(0.5) of 0.064 µM PBGS | more than doubles the K(0.5) to 0.134 µM pea PBGS | half maximal activity at 3.5 µg/ml PBGS | half maximal activity at 13.5 µg/ml PBGS | rises from near 10 at about 0.008 µM to about 250 at about 0.8 µM; fitted line levels at about 275 µmol h-1 mg-1 toward 10 µM (log axis); the half-maximal K(0.5) is printed in the text | curve shifted to the right of the DMSO curve: near 0 at about 0.008 µM, about 240 at about 0.8 µM; fitted line reaches about 290 µmol h-1 mg-1 at 10 µM (log axis); the half-maximal K(0.5) is printed in the text | rises from about 5 at 0.001 µM to a plateau of about 220 at 0.7-1 µM on a log axis | – | –
human PBGS variant F12L (protein) MQPQSVLHSGYLHPLLRAWQTATTTLNASNLIYPIFVTDVPDDIQPITSLPGVARYGVNRLEEMLRPLVEEGLRCVLIFGVPSRVPKDERGSAADSEESPAIEAIHLLRKTFPNLLVACDVCLCPYTSHGHCGLLSENGAFRAEESRQRLAEVALAYAKAGAQVVAPSDMMDGRVEAIKEALMAHGLGNRVSVMSYSAKFASCFYGPFRDAAKSSPAFGDRRCYQLPPGARGLALRAVDRDVREGADMLMVKPGMPYLDIVREVKDKHPDLPLAVYHVSGEFAMLWHGAQAGAFDLKAAVLEAMTAFRRAGADIIITYYTPQLLQWLKEE | – | – | – | – | – | – | – | rises from about 1 at 0 min (fit) and about 2.5 at 15 min to a plateau of about 7.5 µmole h-1 mg-1 by 200-270 min | rises from about 18.3 at about 2 min to a plateau of about 22.2-22.4 µmole h-1 mg-1 from 30-45 min up to 150 min
